{
  "source": "patent US20090192084A1",
  "key": {"p97-Myc": {"biological_target": "p97-Myc", "experiment": "p97-Myc co-IP, 293 cells, MudPIT MS"}, "PLAP (human)": {"biological_target": "PLAP (human) (UniProt Q9Y263)", "experiment": "Flag co-IP, 293 cells, MudPIT MS"}, "VCIP135 (human)": {"biological_target": "T1, VCIP135 (human) (UniProt Q96JH7)", "T1 sequence (looked up)": "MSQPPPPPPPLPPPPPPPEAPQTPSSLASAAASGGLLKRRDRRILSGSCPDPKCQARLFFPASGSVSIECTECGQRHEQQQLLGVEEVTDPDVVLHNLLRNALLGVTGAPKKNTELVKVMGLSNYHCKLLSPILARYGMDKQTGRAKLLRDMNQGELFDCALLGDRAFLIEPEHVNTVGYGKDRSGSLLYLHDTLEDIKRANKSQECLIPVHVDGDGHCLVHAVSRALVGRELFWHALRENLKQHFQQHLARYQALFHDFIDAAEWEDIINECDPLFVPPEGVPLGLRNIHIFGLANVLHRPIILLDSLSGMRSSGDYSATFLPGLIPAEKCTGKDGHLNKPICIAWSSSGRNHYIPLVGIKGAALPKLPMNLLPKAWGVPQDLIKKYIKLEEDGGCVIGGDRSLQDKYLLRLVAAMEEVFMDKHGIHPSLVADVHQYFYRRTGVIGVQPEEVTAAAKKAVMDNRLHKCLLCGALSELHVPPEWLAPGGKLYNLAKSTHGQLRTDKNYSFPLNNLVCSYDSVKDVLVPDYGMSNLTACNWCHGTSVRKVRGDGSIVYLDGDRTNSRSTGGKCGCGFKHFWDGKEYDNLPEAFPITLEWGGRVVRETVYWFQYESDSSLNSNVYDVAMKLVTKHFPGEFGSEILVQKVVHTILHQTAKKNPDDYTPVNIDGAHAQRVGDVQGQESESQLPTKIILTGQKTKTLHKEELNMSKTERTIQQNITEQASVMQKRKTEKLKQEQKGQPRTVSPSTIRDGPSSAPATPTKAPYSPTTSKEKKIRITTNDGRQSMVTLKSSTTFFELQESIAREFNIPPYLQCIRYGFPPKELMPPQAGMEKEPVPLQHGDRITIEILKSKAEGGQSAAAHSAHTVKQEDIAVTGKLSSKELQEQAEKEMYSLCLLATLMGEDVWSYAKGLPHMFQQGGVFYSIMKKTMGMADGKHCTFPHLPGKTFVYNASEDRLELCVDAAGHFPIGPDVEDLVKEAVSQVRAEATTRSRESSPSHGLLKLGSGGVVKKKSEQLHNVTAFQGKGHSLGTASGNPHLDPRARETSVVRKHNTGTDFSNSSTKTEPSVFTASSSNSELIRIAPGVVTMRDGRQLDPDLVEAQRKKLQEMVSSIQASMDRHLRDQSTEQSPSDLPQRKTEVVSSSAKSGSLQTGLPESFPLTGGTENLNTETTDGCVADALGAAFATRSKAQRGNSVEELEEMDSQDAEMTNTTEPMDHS", "experiment": "Flag co-IP, 293 cells, MudPIT MS"}, "[1]": {"biological_target": "F-box//WD-repeat protein 1B, FBW1B (human) (UniProt Q9UKB1)", "sequence (Q9UKB1 whole entry)": "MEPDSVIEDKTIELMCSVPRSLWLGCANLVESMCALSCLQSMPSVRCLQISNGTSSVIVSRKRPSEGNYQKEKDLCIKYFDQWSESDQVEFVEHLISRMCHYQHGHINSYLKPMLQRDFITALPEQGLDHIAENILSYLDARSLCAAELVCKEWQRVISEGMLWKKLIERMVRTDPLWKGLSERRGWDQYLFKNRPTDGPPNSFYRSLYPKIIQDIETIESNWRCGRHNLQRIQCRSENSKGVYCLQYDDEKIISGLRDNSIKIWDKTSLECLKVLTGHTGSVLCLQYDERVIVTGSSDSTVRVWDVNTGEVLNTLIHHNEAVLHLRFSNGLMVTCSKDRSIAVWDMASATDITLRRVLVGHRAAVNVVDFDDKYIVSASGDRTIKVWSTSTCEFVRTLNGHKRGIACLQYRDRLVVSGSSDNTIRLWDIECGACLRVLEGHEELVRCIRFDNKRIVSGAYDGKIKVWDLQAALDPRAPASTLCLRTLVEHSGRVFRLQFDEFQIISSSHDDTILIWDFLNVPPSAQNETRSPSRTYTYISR", "experiment": "Flag co-IP, MudPIT MS, MG132"}, "UBR2 (human) [2]": {"biological_target": "UBR2 (human) (UniProt Q8IWV8)", "sequence (Q8IWV8 2-1755 limits assumed)": "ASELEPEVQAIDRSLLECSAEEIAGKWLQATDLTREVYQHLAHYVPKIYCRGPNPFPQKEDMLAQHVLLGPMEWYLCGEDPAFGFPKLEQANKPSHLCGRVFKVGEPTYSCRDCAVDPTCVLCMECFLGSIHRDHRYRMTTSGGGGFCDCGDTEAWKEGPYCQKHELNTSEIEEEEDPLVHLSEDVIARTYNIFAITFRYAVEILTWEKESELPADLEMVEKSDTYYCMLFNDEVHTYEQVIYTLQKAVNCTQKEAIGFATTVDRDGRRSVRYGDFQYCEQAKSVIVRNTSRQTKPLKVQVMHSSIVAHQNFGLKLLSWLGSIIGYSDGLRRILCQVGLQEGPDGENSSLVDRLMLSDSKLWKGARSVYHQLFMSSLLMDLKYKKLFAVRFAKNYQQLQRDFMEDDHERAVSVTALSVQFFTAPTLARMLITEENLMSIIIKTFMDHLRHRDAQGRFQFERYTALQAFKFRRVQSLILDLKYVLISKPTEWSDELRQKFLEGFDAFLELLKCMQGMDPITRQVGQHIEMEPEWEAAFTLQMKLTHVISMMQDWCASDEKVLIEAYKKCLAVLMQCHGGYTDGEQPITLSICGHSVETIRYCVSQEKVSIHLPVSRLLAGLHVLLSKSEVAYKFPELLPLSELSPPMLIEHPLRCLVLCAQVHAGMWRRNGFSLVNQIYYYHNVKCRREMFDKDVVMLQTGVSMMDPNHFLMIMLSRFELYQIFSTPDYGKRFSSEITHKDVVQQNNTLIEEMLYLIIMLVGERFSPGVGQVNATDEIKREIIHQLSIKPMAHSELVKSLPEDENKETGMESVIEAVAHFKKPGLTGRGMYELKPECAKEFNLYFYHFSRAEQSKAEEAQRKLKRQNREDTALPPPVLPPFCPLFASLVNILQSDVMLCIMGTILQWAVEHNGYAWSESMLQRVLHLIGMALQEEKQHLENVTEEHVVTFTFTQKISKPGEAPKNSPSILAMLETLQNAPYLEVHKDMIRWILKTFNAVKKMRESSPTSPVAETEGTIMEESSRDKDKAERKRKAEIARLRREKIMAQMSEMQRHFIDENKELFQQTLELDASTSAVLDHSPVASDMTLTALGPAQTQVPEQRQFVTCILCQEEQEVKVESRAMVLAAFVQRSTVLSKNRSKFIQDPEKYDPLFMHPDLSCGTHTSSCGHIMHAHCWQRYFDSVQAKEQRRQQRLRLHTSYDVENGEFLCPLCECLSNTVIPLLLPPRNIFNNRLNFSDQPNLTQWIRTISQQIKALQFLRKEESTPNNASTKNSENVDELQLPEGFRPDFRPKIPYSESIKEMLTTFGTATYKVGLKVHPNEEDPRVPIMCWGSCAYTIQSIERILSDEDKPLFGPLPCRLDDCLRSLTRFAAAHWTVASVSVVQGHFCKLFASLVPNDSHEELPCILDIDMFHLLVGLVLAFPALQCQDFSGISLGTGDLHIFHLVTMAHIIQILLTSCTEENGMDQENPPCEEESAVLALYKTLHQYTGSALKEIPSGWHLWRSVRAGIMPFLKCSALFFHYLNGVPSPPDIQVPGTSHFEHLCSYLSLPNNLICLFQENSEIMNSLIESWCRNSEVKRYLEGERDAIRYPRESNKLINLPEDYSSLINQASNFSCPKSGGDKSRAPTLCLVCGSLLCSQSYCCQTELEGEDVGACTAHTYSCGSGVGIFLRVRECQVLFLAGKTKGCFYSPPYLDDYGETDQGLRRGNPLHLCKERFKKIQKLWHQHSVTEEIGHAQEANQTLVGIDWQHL", "experiment": "Flag co-IP, MudPIT MS, MG132"}, "[3]": {"biological_target": "Kelch-like protein 22. KLEIL22 (human) (UniProt Q53GT1)", "sequence (Q53GT1 2-634 limits assumed)": "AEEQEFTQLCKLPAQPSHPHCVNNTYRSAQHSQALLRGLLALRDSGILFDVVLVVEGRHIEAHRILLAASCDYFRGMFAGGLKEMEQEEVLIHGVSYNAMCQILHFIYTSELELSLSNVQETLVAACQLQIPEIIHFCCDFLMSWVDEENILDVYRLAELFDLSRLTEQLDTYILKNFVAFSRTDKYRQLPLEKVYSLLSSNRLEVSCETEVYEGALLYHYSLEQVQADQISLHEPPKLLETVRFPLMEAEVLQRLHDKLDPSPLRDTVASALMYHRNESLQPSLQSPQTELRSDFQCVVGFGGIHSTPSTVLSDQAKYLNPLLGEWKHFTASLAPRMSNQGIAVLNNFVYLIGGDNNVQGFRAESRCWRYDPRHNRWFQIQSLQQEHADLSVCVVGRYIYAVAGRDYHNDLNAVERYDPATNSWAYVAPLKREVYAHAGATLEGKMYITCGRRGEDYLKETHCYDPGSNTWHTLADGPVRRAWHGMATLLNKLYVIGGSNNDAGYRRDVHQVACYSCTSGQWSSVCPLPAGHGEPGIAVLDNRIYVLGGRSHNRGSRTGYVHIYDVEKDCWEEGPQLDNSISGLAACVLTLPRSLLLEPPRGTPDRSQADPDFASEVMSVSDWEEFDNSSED", "experiment": "Flag co-IP, MudPIT MS, MG132"}, "[4]": {"biological_target": "Retinoblastoma-associated factor 600, UBR4 (human) (UniProt Q5T4S7)", "experiment": "Flag co-IP, MudPIT MS, MG132"}, "gp78 (human) [5]": {"biological_target": "gp78 (human) (UniProt Q9UKV5)", "experiment": "Flag co-IP, MudPIT MS, MG132"}, "Cullin 1 (human) [6]": {"biological_target": "Cullin 1 (human) (UniProt Q13616)", "experiment": "Flag co-IP, MudPIT MS, MG132"}, "Cullin 2 (human)": {"biological_target": "Cullin 2 (human) (UniProt Q13617)", "experiment": "Flag co-IP, MudPIT MS, MG132"}, "Cullin 3 (human) [7]": {"biological_target": "Cullin 3 (human) (UniProt Q13618)", "experiment": "Flag co-IP, MudPIT MS, MG132"}, "SKP1 (human) [8]": {"biological_target": "SKP1 (human) (UniProt P63208)", "sequence (P63208 2-163 limits assumed)": "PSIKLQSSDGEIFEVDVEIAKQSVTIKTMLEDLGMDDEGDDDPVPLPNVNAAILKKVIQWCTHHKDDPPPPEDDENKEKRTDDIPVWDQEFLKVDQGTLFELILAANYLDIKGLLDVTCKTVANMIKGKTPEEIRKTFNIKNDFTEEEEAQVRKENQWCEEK", "experiment": "Flag co-IP, MudPIT MS, MG132"}, "[9]": {"biological_target": "CUL4- and DDB I-associated WDR protein 2, WDR26 (human) (UniProt Q9H7D7)", "experiment": "Flag co-IP, MudPIT MS, MG132"}, "UBR1 (human)": {"biological_target": "UBR1 (human) (UniProt Q8IWV7)", "sequence (Q8IWV7 2-1749 limits assumed)": "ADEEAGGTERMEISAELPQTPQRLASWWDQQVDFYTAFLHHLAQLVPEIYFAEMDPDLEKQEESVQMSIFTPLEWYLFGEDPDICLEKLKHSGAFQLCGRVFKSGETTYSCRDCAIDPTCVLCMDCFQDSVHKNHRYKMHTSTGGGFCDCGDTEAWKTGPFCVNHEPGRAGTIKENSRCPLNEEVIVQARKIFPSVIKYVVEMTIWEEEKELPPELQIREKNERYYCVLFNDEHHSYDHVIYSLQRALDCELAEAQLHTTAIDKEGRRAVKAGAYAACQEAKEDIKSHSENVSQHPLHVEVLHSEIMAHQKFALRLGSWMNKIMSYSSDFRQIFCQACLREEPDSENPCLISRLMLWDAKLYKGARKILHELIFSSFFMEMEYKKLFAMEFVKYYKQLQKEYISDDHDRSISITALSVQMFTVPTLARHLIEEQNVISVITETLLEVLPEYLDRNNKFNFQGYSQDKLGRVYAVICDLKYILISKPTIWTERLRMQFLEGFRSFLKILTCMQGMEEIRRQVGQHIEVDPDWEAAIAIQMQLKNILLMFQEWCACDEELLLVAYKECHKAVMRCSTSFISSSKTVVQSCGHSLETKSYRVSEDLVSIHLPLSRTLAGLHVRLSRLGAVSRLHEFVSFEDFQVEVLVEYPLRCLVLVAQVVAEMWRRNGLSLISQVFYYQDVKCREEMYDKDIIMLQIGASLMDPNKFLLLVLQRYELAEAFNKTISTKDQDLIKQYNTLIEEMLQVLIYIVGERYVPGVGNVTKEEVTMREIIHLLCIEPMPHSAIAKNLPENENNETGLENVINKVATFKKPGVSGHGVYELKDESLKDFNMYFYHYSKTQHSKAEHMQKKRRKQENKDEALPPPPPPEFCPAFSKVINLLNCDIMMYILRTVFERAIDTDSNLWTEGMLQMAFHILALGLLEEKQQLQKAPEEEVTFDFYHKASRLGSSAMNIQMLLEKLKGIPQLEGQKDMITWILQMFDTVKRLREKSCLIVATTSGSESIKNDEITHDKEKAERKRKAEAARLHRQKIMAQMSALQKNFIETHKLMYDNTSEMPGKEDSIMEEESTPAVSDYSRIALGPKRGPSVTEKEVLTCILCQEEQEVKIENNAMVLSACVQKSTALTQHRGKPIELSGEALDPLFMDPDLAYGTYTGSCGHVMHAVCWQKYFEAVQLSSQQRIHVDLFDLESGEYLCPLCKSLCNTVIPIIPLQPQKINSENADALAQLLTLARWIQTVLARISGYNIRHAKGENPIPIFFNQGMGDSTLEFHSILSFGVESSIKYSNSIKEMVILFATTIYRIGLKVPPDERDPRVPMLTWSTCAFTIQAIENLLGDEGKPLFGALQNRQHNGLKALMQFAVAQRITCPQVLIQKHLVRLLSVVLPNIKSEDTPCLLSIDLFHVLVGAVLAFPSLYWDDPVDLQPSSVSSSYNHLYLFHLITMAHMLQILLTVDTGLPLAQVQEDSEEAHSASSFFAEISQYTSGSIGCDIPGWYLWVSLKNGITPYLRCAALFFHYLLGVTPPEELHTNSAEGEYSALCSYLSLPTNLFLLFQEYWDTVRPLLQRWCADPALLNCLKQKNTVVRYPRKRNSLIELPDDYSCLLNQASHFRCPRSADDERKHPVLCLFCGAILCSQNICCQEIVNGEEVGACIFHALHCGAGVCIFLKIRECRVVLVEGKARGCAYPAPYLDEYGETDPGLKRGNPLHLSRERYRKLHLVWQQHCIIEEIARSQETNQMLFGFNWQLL", "experiment": "Flag co-IP, MudPIT MS, DMSO"}, "UBR2 (human) [10]": {"biological_target": "UBR2 (human) (UniProt Q8IWV8)", "experiment": "Flag co-IP, MudPIT MS, DMSO"}, "[11]": {"biological_target": "Kelch-like protein 22. KLEIL22 (human) (UniProt Q53GT1)", "experiment": "Flag co-IP, MudPIT MS, DMSO"}, "[12]": {"biological_target": "Retinoblastoma-associated factor 600, UBR4 (human) (UniProt Q5T4S7)", "experiment": "Flag co-IP, MudPIT MS, DMSO"}, "[13]": {"biological_target": "Kelch repeat and BTB domain-containing protein 7, KBTB7 (human) (UniProt Q8WVZ9)", "experiment": "Flag co-IP, MudPIT MS, DMSO"}, "Praja 2 (human)": {"biological_target": "Praja 2 (human) (UniProt O43164)", "experiment": "Flag co-IP, MudPIT MS, DMSO"}, "gp78 (human) [14]": {"biological_target": "gp78 (human) (UniProt Q9UKV5)", "experiment": "Flag co-IP, MudPIT MS, DMSO"}, "Cullin 1 (human) [15]": {"biological_target": "Cullin 1 (human) (UniProt Q13616)", "experiment": "Flag co-IP, MudPIT MS, DMSO"}, "Cullin 3 (human) [16]": {"biological_target": "Cullin 3 (human) (UniProt Q13618)", "experiment": "Flag co-IP, MudPIT MS, DMSO"}, "SKP1 (human) [17]": {"biological_target": "SKP1 (human) (UniProt P63208)", "experiment": "Flag co-IP, MudPIT MS, DMSO"}},
  "data": [
    {"substance": "endogenous FAF1 (from UniProt Q9UNN5 1-650)", "values": [
      {"measurement": "sequence count", "setting": "p97-Myc", "result": 7},
      {"measurement": "sequence coverage", "setting": "p97-Myc", "result": 8.2, "unit": "%"},
      {"measurement": "spectrum count", "setting": "p97-Myc", "result": 11}
    ]},
    {"substance": "Flag-FAF1 (from UniProt Q9UNN5 1-650)", "values": [
      {"measurement": "sequence count", "setting": "PLAP (human)", "result": 2},
      {"measurement": "sequence coverage", "setting": "PLAP (human)", "result": 4.8, "unit": "%"},
      {"measurement": "spectrum count", "setting": "PLAP (human)", "result": 2},
      {"measurement": "sequence count", "setting": "VCIP135 (human)", "result": 5},
      {"measurement": "sequence coverage", "setting": "VCIP135 (human)", "result": 5.9, "unit": "%"},
      {"measurement": "spectrum count", "setting": "VCIP135 (human)", "result": 5},
      {"measurement": "abundance factor (AF)", "setting": "[1]", "result": 3.4},
      {"measurement": "sequence count", "setting": "[1]", "result": 2},
      {"measurement": "spectrum count", "setting": "[1]", "result": 2},
      {"measurement": "abundance factor (AF)", "setting": "UBR2 (human) [2]", "result": 1},
      {"measurement": "sequence count", "setting": "UBR2 (human) [2]", "result": 2},
      {"measurement": "spectrum count", "setting": "UBR2 (human) [2]", "result": 2},
      {"measurement": "abundance factor (AF)", "setting": "[3]", "result": 11.7},
      {"measurement": "sequence count", "setting": "[3]", "result": 8},
      {"measurement": "spectrum count", "setting": "[3]", "result": 8},
      {"measurement": "abundance factor (AF)", "setting": "[4]", "result": 10.2},
      {"measurement": "sequence count", "setting": "[4]", "result": 47},
      {"measurement": "spectrum count", "setting": "[4]", "result": 56},
      {"measurement": "abundance factor (AF)", "setting": "gp78 (human) [5]", "result": 8.6},
      {"measurement": "sequence count", "setting": "gp78 (human) [5]", "result": 4},
      {"measurement": "spectrum count", "setting": "gp78 (human) [5]", "result": 6},
      {"measurement": "abundance factor (AF)", "setting": "Cullin 1 (human) [6]", "result": 8.4},
      {"measurement": "sequence count", "setting": "Cullin 1 (human) [6]", "result": 5},
      {"measurement": "spectrum count", "setting": "Cullin 1 (human) [6]", "result": 7},
      {"measurement": "abundance factor (AF)", "setting": "Cullin 2 (human)", "result": 7.2},
      {"measurement": "sequence count", "setting": "Cullin 2 (human)", "result": 6},
      {"measurement": "spectrum count", "setting": "Cullin 2 (human)", "result": 6},
      {"measurement": "abundance factor (AF)", "setting": "Cullin 3 (human) [7]", "result": 14.1},
      {"measurement": "sequence count", "setting": "Cullin 3 (human) [7]", "result": 12},
      {"measurement": "spectrum count", "setting": "Cullin 3 (human) [7]", "result": 12},
      {"measurement": "abundance factor (AF)", "setting": "SKP1 (human) [8]", "result": 33.6},
      {"measurement": "sequence count", "setting": "SKP1 (human) [8]", "result": 4},
      {"measurement": "spectrum count", "setting": "SKP1 (human) [8]", "result": 6},
      {"measurement": "abundance factor (AF)", "setting": "[9]", "result": 8.9},
      {"measurement": "sequence count", "setting": "[9]", "result": 5},
      {"measurement": "spectrum count", "setting": "[9]", "result": 5},
      {"measurement": "abundance factor (AF)", "setting": "UBR1 (human)", "result": 1},
      {"measurement": "sequence count", "setting": "UBR1 (human)", "result": 2},
      {"measurement": "spectrum count", "setting": "UBR1 (human)", "result": 2},
      {"measurement": "abundance factor (AF)", "setting": "UBR2 (human) [10]", "result": 2},
      {"measurement": "sequence count", "setting": "UBR2 (human) [10]", "result": 4},
      {"measurement": "spectrum count", "setting": "UBR2 (human) [10]", "result": 4},
      {"measurement": "abundance factor (AF)", "setting": "[11]", "result": 8.3},
      {"measurement": "sequence count", "setting": "[11]", "result": 6},
      {"measurement": "spectrum count", "setting": "[11]", "result": 6},
      {"measurement": "abundance factor (AF)", "setting": "[12]", "result": 1.6},
      {"measurement": "sequence count", "setting": "[12]", "result": 9},
      {"measurement": "spectrum count", "setting": "[12]", "result": 9},
      {"measurement": "abundance factor (AF)", "setting": "[13]", "result": 2.6},
      {"measurement": "sequence count", "setting": "[13]", "result": 2},
      {"measurement": "spectrum count", "setting": "[13]", "result": 2},
      {"measurement": "abundance factor (AF)", "setting": "Praja 2 (human)", "result": 3.8},
      {"measurement": "sequence count", "setting": "Praja 2 (human)", "result": 3},
      {"measurement": "spectrum count", "setting": "Praja 2 (human)", "result": 3},
      {"measurement": "abundance factor (AF)", "setting": "gp78 (human) [14]", "result": 2.7},
      {"measurement": "sequence count", "setting": "gp78 (human) [14]", "result": 2},
      {"measurement": "spectrum count", "setting": "gp78 (human) [14]", "result": 2},
      {"measurement": "abundance factor (AF)", "setting": "Cullin 1 (human) [15]", "result": 9.1},
      {"measurement": "sequence count", "setting": "Cullin 1 (human) [15]", "result": 6},
      {"measurement": "spectrum count", "setting": "Cullin 1 (human) [15]", "result": 8},
      {"measurement": "abundance factor (AF)", "setting": "Cullin 3 (human) [16]", "result": 24.6},
      {"measurement": "abundance factor (AF)", "setting": "SKP1 (human) [17]", "result": 10.7},
      {"measurement": "sequence count", "setting": "SKP1 (human) [17]", "result": 2},
      {"measurement": "spectrum count", "setting": "SKP1 (human) [17]", "result": 2}
    ]}
  ]
}
